Data: patent publication US20240382610A1 (TALLAC THERAPEUTICS, published 2024)

T1: Human nectin-4 ECD-6His (TNT-175) (human, UniProt Q96NY8 32-349)
T1 construct: the entry holds the extracellular domain with the C-terminal 6His tag
T1 sequence: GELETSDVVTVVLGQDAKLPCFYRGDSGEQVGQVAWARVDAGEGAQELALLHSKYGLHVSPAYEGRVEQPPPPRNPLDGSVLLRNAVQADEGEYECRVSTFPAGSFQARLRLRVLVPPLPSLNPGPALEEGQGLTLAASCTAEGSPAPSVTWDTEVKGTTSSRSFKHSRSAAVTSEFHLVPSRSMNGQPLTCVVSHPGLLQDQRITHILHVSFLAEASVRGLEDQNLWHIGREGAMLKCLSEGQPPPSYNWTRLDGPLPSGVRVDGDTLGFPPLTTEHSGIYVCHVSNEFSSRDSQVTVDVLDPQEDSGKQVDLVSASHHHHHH

T2: human nectin-4 on cells (human, UniProt Q96NY8 32-510)
T2 construct: whole, on cells; also called PVRL4
T2 sequence (looked up): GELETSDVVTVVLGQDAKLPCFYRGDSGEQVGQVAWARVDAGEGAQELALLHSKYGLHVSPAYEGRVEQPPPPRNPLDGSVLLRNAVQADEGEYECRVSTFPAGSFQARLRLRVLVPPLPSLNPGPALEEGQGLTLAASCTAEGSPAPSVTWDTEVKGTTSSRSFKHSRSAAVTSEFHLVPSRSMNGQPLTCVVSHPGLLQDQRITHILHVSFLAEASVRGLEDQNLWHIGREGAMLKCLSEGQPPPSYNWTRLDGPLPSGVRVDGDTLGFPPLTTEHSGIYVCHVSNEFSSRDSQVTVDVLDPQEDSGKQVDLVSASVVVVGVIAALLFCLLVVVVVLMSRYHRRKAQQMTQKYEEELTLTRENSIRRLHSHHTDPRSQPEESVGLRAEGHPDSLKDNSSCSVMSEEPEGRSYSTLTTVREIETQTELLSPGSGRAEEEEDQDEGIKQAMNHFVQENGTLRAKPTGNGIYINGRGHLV

B1: TNT-197 (antibody, mouse IgG2a, kappa)
heavy: EVQLVQSGGGVVQPGRSLRLSCAASGFTFSSYAMHWVRQAPGKGLEWVAVISYDGSNKYYADSVKGRFTISRDNSKNTLYLQMNSLRAEDTAVYYCARATLQLWLPLFDYWGQGTLVTVSSAKTTAPSVYPLAPVCGDTTGSSVTLGCLVKGYFPEPVTLTWNSGSLSSGVHTFPAVLQSDLYTLSSSVTVTSSTWPSQSITCNVAHPASSTKVDKKIEPRGPTIKPCPPCKCPAPNLLGGPSVFIFPPKIKDVLMISLSPIVTCVVVDVSEDDPDVQISWFVNNVEVHTAQTQTHREDYNSTLRVVSALPIQHQDWMSGKEFKCKVNNKDLPAPIERTISKPKGSVRAPQVYVLPPPEEEMTKKQVTLTCMVTDFMPEDIYVEWTNNGKTELNYKNTEPVLDSDGSYFMYSKLRVEKKNWVERNSYSCSVVHEGLHNHHTTKSFSRTPGRPQGFGPP
light: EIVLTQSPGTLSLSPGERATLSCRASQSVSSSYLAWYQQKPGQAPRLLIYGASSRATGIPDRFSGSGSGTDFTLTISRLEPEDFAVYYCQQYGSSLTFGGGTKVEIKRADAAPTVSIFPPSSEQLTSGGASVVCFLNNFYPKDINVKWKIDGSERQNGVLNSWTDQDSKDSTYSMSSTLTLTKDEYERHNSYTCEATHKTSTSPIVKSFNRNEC
B2: TNT-189 (antibody, mouse IgG2a, kappa)
heavy: EVQLVQSGAEVKKPGSSVKVSCKASGGTFSSYAISWVRQAPGQGLEWMGGIIPIFGTANYAQKFQGRVTITADESTSTAYMELSSLRSEDTAVYYCARGYSSSWYEPYYFDYWGQGTLVTVSSAKTTAPSVYPLAPVCGDTTGSSVTLGCLVKGYFPEPVTLTWNSGSLSSGVHTFPAVLQSDLYTLSSSVTVTSSTWPSQSITCNVAHPASSTKVDKKIEPRGPTIKPCPPCKCPAPNLLGGPSVFIFPPKIKDVLMISLSPIVTCVVVDVSEDDPDVQISWFVNNVEVHTAQTQTHREDYNSTLRVVSALPIQHQDWMSGKEFKCKVNNKDLPAPIERTISKPKGSVRAPQVYVLPPPEEEMTKKQVTLTCMVTDFMPEDIYVEWTNNGKTELNYKNTEPVLDSDGSYFMYSKLRVEKKNWVERNSYSCSVVHEGLHNHHTTKSFSRTPGRPQGFGPP
light: DIQLTQSPSSLSASVGDRVTITCRASQGISNYLAWYQQKPGKAPKLLIYAASTLQSGVPSRFSGSGSGTDFTLTISSLQPEDFATYYCQQSYSTPYTFGQGTKLEIKRADAAPTVSIFPPSSEQLTSGGASVVCFLNNFYPKDINVKWKIDGSERQNGVLNSWTDQDSKDSTYSMSSTLTLTKDEYERHNSYTCEATHKTSTSPIVKSFNRNEC
B3: TNT-198 (antibody, mouse IgG2a, kappa)
heavy: EVQLVQSGAEVKKPGSSVKVSCKASGGTFSSYAISWVRQAPGQGLEWMGWINPNSGGTNYAQKFQGRVTMTRDTSTSTAYMELSSLRSEDTAVYYCATGYYGDLYYFDYWGQGTLVTVSSAKTTAPSVYPLAPVCGDTTGSSVTLGCLVKGYFPEPVTLTWNSGSLSSGVHTFPAVLQSDLYTLSSSVTVTSSTWPSQSITCNVAHPASSTKVDKKIEPRGPTIKPCPPCKCPAPNLLGGPSVFIFPPKIKDVLMISLSPIVTCVVVDVSEDDPDVQISWFVNNVEVHTAQTQTHREDYNSTLRVVSALPIQHQDWMSGKEFKCKVNNKDLPAPIERTISKPKGSVRAPQVYVLPPPEEEMTKKQVTLTCMVTDFMPEDIYVEWTNNGKTELNYKNTEPVLDSDGSYFMYSKLRVEKKNWVERNSYSCSVVHEGLHNHHTTKSFSRTPGRPQGFGPP
light: DIVMTQSPSSLSASVGDRVTITCRASQGISNYLAWYQQKPGKVPKLLIYAASTLQSGVPSRFSGSGSGTEFTLAISSLQPEDLATYYCQQLNSHPITFGQGTRLEIKRADAAPTVSIFPPSSEQLTSGGASVVCFLNNFYPKDINVKWKIDGSERQNGVLNSWTDQDSKDSTYSMSSTLTLTKDEYERHNSYTCEATHKTSTSPIVKSFNRNEC
B4: TNT-188 (antibody, mouse IgG2a, kappa)
heavy: EVQLVQSGAEVKKPGSSVKVSCKASGYTFTGYYMHWVRQAPGQGLEWMGWINPNSGGTNYAQKFQGRVTMTRDTSISTAYMELRSLRSDDTAVYYCARGSALHFFGVFDYWGQGTLVTVSSAKTTAPSVYPLAPVCGDTTGSSVTLGCLVKGYFPEPVTLTWNSGSLSSGVHTFPAVLQSDLYTLSSSVTVTSSTWPSQSITCNVAHPASSTKVDKKIEPRGPTIKPCPPCKCPAPNLLGGPSVFIFPPKIKDVLMISLSPIVTCVVVDVSEDDPDVQISWFVNNVEVHTAQTQTHREDYNSTLRVVSALPIQHQDWMSGKEFKCKVNNKDLPAPIERTISKPKGSVRAPQVYVLPPPEEEMTKKQVTLTCMVTDFMPEDIYVEWTNNGKTELNYKNTEPVLDSDGSYFMYSKLRVEKKNWVERNSYSCSVVHEGLHNHHTTKSFSRTPGRPQGFGPP
light: not shown

The binders below were run against T1, Human nectin-4 ECD-6His (TNT-175) (assay: competition ELISA; nectin-4 ECD premixed with TNT201, captured by the coat antibody; % of signal without premix antibody).
Method in brief: (§1)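 Readout is ABTS absorbance after 20 minutes, background-subtracted and given as percent of nectin-4 without premix antibody at its lowest dilution. Capture used goat anti-mouse IgG coated overnight at 4° C; His-tagged ECD was detected by rabbit anti-6×His HRP at 1:4,000.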

% of Positive | Binder
1.7% | B1
1% | B2
0.9% | B3
2.7% | B4

These binders were tested against T1, Human nectin-4 ECD-6His (TNT-175) (assay: competition ELISA; nectin-4 ECD premixed with TNT203, captured by the coat antibody; % of signal without premix antibody).
Method in brief: as §1

% of Positive | Binder
39.7% | B1
29.3% | B2
29.8% | B3
40% | B4

These binders were tested against T1, Human nectin-4 ECD-6His (TNT-175) (assay: competition ELISA; nectin-4 ECD premixed with TNT211, captured by the coat antibody; % of signal without premix antibody).
Method in brief: as §1

% of Positive | Binder
32.4% | B1
27% | B2
19.5% | B3
35.4% | B4

Each binder was assayed against T1, Human nectin-4 ECD-6His (TNT-175) (assay: competition ELISA; nectin-4 ECD premixed with TNT202, captured by the coat antibody; % of signal without premix antibody).
Method in brief: as §1

% of Positive | Binder
7.8% | B1
4.3% | B2
2.5% | B3
12.8% | B4

The binders below were run against T1, Human nectin-4 ECD-6His (TNT-175) (assay: competition ELISA; nectin-4 ECD premixed with TNT206, captured by the coat antibody; % of signal without premix antibody).
Method in brief: as §1

% of Positive | Binder
14.3% | B1
10.5% | B2
5.4% | B3
20% | B4

These binders were tested against T1, Human nectin-4 ECD-6His (TNT-175) (assay: competition ELISA; nectin-4 ECD premixed with TNT212, captured by the coat antibody; % of signal without premix antibody).
Method in brief: as §1

% of Positive | Binder
2.7% | B1
3.1% | B2
1.9% | B3
10.1% | B4

Each binder was assayed against T1, Human nectin-4 ECD-6His (TNT-175) (assay: SPR ProteOn, mAb on protein A).
Experimental: Initial testing of binding of nectin-4 antibodies to nectin-4. […] Biotinylated protein A (15 μg/mL) was immobilized to the surface of an NLC chip. 30 nM of purified mAb supernatant was diluted in PBS-T and captured over the protein A surface. Serial dilutions of human nectin-4 were injected over the mAb-coated chips, and binding kinetics were determined. Chips were regenerated using 4:1 v/v of IgG elution butter/4M NaCl.

Kd | koff | kon | Binder
4.28 nM | 0.00334 s⁻¹ | 780000 M⁻¹ s⁻¹ | B1
5.09 nM | 0.00423 s⁻¹ | 832000 M⁻¹ s⁻¹ | B2
20.2 nM | 0.00138 s⁻¹ | 68400 M⁻¹ s⁻¹ | B3
7.03 nM | 0.00153 s⁻¹ | 217000 M⁻¹ s⁻¹ | B4

These binders were tested against T1, Human nectin-4 ECD-6His (TNT-175) (assay: competition ELISA; nectin-4 ECD premixed with TNT209, captured by the coat antibody; % of signal without premix antibody).
Method in brief: as §1

% of Positive | Binder
37.2% | B1
26.7% | B2
26% | B3
43.7% | B4

The binders below were run against T1, Human nectin-4 ECD-6His (TNT-175) (assay: competition ELISA; nectin-4 ECD premixed with TNT208, captured by the coat antibody; % of signal without premix antibody).
Method in brief: as §1

% of Positive | Binder
5.8% | B1
4.3% | B2
2.1% | B3
12.7% | B4

Each binder was assayed against T1, Human nectin-4 ECD-6His (TNT-175) (assay: competition ELISA; nectin-4 ECD premixed with TNT210, captured by the coat antibody; % of signal without premix antibody).
Method in brief: as §1

% of Positive | Binder
2.6% | B1
2.7% | B2
0.8% | B3
8% | B4

What follows are binders tested against T1, Human nectin-4 ECD-6His (TNT-175) (assay: competition ELISA; nectin-4 ECD premixed with TNT205, captured by the coat antibody; % of signal without premix antibody).
Method in brief: as §1

% of Positive | Binder
57.1% | B1
44.4% | B2
56.9% | B3
52.5% | B4

These binders were tested against T2, human nectin-4 on cells (assay: flow cytometry MFI, MNK74 (nectin-4 positive) over AGS (negative)).

Fold-change of binding to MNK74 compared to control AGS | Binder
4.8 fold | B1
5 fold | B2
5.9 fold | B3
4.3 fold | B4

Each binder was assayed against T1, Human nectin-4 ECD-6His (TNT-175) (assay: competition ELISA; nectin-4 ECD premixed with TNT207, captured by the coat antibody; % of signal without premix antibody).
Method in brief: as §1

% of Positive | Binder
3.4% | B1
2.4% | B2
1% | B3
7.5% | B4

These binders were tested against T1, Human nectin-4 ECD-6His (TNT-175) (assay: competition ELISA; nectin-4 ECD premixed with TNT204, captured by the coat antibody; % of signal without premix antibody).
Method in brief: as §1

% of Positive | Binder
6.7% | B1
3.9% | B2
2.2% | B3
9.2% | B4
